Numbered stars: 1 amine (or outer) side, 2 acyl side, 3 side chain; on linkers, the order of the positions; unused ones are H or OH. Square brackets hold non-standard residues; d marks the D form. * marks the point of attachment. Pro(trans-4-NH2) = O=C([C@@H]1C[C@@H](N[*:3])CN1[*:1])[*:2]; Sni = (S)-nipecotic acid, O=C([C@H]1CCCN([*:1])C1)[*:2]; Pro(trans-4-Ph) = O=C(O)[C@@H]1C[C@@H](c2ccccc2)CN1; Cpp = rac-(3R,4S)-cis-methanoproline; Pro(3S-OH) = O=C(O)[C@H]1NCC[C@@H]1O; cisHyp = O=C(O)[C@@H]1C[C@H](O)CN1; dDap(Me2) = CN(C)C[C@@H](N)C(=O)O; Hyp = O=C(O)[C@@H]1C[C@@H](O)CN1; NMeL = CN[C@@H](CC(C)C)C(=O)O; ΔPro = O=C(O)[C@@H]1C=CCN1; Ac6c = NC1(C(=O)O)CCCCC1; Octanoyl = CCCCCCCC(=O)*; Api = NC1(C(=O)O)CCNCC1; Dap = NC[C@H](N)C(=O)O; leu = not defined here; NHcHex = C1CCC(N*)CC1 Some results are limits rather than exact numbers.

This experiment deals with T1, natriuretic peptide receptor-B (human).
T1 chain: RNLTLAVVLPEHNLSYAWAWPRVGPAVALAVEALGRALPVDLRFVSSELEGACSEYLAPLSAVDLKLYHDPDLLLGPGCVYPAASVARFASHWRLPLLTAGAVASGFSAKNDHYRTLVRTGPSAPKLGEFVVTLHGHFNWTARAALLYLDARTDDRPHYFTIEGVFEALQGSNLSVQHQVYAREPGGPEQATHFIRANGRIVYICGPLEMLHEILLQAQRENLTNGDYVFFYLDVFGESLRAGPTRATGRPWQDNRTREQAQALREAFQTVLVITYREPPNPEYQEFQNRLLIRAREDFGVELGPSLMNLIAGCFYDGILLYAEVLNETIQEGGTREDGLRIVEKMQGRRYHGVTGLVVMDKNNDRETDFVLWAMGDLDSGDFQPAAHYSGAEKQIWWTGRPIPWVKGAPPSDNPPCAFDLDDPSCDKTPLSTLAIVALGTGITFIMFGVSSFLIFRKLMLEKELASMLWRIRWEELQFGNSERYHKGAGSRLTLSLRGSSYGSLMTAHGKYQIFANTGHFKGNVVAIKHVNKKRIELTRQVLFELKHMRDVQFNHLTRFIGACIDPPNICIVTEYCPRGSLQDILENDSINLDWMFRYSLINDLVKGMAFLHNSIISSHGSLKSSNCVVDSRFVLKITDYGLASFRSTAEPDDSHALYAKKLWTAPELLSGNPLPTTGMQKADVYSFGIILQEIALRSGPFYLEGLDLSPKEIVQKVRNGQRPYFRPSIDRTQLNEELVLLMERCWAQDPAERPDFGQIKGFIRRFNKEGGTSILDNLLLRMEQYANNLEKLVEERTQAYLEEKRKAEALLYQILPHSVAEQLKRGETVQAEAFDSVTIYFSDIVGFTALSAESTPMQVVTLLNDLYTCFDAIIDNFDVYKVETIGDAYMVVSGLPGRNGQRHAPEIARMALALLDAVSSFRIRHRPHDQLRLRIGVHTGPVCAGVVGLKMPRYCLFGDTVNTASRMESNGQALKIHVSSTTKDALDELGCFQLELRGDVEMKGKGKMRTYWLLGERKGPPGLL
Kind of experiment: cell-based or functional assay.

B1: JAL-1464 (peptide)
peptide: Octanoyl-[Sni]F[dL]L[Hyp][NMeL]DP[NHcHex]
As for B1, the “EC50 group, cGMP in GTM-3 cells” value was no more than 5 µM.

B2: JAL-1453 (peptide)
peptide: Octanoyl-[dA]F[dDap(Me2)]L[Pro(trans-4-NH2)][NMeL]DPI-NH2
B2: the “EC50 group, cGMP in GTM-3 cells” value was no more than 1 µM.

B3: JAL-1482 (peptide)
peptide: Octanoyl-AF[leu]L[Hyp][NMeL]D[Dap]I-NH2
modifications: not fully specified (some residues); printed as Occ-ala-Phe-leu-Leu-Hyp-Nml-Asp-Udp-Ile-NH2; reading uncertain
B3: the “EC50 group, cGMP in GTM-3 cells” value is no more than 5 µM.

B4: JAL-1443 (peptide)
peptide: Octanoyl-AFLL[Hyp][NMeL]D[Cpp]I-NH2
modifications: also: lower-case ala, leu: meaning not given here
As to B4, the “EC50 group, cGMP in GTM-3 cells” value was no more than 5 µM.

B5: JAL-0656 (peptide)
peptide: XXFGLKLDRI
HELM: PEPTIDE1{[CCCCCC(=O)[*:2]].[O=C1[C@@H](N[*:1])CCCCN1CC(=O)[*:2]].F.G.L.K.L.D.R.I.[am]}$$$$V2.0
SMILES: CCCCCC(=O)N[C@H]1CCCCN(CC(=O)N[C@@H](Cc2ccccc2)C(=O)NCC(=O)N[C@@H](CC(C)C)C(=O)N[C@@H](CCCCN)C(=O)N[C@@H](CC(C)C)C(=O)N[C@@H](CC(=O)O)C(=O)N[C@@H](CCCNC(=N)N)C(=O)N[C@H](C(N)=O)[C@@H](C)CC)C1=O
With B5, the “EC50 group, cGMP in GTM-3 cells” value was no more than 15 µM.

B6: JAL-1460 (peptide)
peptide: Octanoyl-[dA]FXL[Pro(trans-4-NH2)][NMeL]DRI-NH2
modifications: not fully specified (some residues); printed as Occ-ala-Phe-dap(6238)2-Leu-Tap-Nml-Asp-Arg-Ile-NH2
With B6, the “EC50 group, cGMP in GTM-3 cells” value is no more than 5 µM.

B7: JAL-1463 (peptide)
peptide: Octanoyl-[dA]FXL[Pro(trans-4-NH2)][NMeL]DRI-NH2
modifications: not fully specified (some residues); printed as Occ-ala-Phe-dap(1464)-Leu-Tap-Nml-Asp-Arg-Ile-NH2
B7: the “EC50 group, cGMP in GTM-3 cells” value was no more than 1 µM.

B8: JAL-1451 (peptide)
peptide: Octanoyl-AF[Api]L[Hyp][NMeL]DPI-NH2
modifications: also: lower-case ala: meaning not given here
Consider B8, for which the “EC50 group, cGMP in GTM-3 cells” value is no more than 5 µM.

B9: JAL-0654 (peptide)
peptide: XXFGLKLDRI
HELM: PEPTIDE1{[CCCCCC(=O)[*:2]].[O=C(C1CCCN([*:1])C1)[*:2]].F.G.L.K.L.D.R.I.[am]}$$$$V2.0
SMILES: CCCCCC(=O)N1CCCC(C(=O)N[C@@H](Cc2ccccc2)C(=O)NCC(=O)N[C@@H](CC(C)C)C(=O)N[C@@H](CCCCN)C(=O)N[C@@H](CC(C)C)C(=O)N[C@@H](CC(=O)O)C(=O)N[C@@H](CCCNC(=N)N)C(=O)N[C@H](C(N)=O)[C@@H](C)CC)C1
For the molecule B9, the “EC50 group, cGMP in GTM-3 cells” value is no more than 15 µM.

B10: JAL-1456 (peptide)
peptide: Octanoyl-[dA]F[dL]L[Hyp][NMeL]D[Pro(trans-4-Ph)]I-NH2
As for B10, the “EC50 group, cGMP in GTM-3 cells” value was no more than 15 µM.

B11: JAL-1454 (peptide)
peptide: Octanoyl-[dA]F[Ac6c]L[Pro(trans-4-NH2)][NMeL]DRI-NH2
Consider B11, for which the “EC50 group, cGMP in GTM-3 cells” value is no more than 1 µM.

B12: JAL-1461 (peptide)
peptide: Octanoyl-[dA]FXL[Pro(trans-4-NH2)][NMeL]DRI-NH2
modifications: not fully specified (some residues); printed as Occ-ala-Phe-dap(6238)-Leu-Tap-Nml-Asp-Arg-Ile-NH2
Consider B12, for which the “EC50 group, cGMP in GTM-3 cells” value is no more than 5 µM.

B13: JAL-1479 (peptide)
peptide: Octanoyl-AF[leu]L[Hyp][NMeL]D[ΔPro]I-NH2
modifications: not fully specified (some residues); printed as Occ-ala-Phe-leu-Leu-Hyp-Nml-Asp-Dhp-Ile-NH2; reading uncertain
For the molecule B13, the “EC50 group, cGMP in GTM-3 cells” value is no more than 5 µM.

B14: JAL-1462 (peptide)
peptide: Octanoyl-[dA]FXL[Pro(trans-4-NH2)][NMeL]DRI-NH2
modifications: not fully specified (some residues); printed as Occ-ala-Phe-dap(3846)2-Leu-Tap-Nml-Asp-Arg-Ile-NH2
Consider B14, for which the “EC50 group, cGMP in GTM-3 cells” value is no more than 5 µM.

B15: JAL-1452 (peptide)
peptide: Octanoyl-[dA]F[Api]L[Pro(trans-4-NH2)][NMeL]DPI-NH2
Regarding B15, the “EC50 group, cGMP in GTM-3 cells” value is no more than 1 µM.

B16: JAL-1457 (peptide)
peptide: Octanoyl-[dA]F[dL]L[Hyp][NMeL]D[Ac6c]I-NH2
Consider B16, for which the “EC50 group, cGMP in GTM-3 cells” value is no more than 15 µM.

B17: JAL-1458 (peptide)
peptide: Octanoyl-[dA]F[dL]L[Hyp][NMeL]D[Api]I-NH2
In the case of B17, the “EC50 group, cGMP in GTM-3 cells” value is no more than 5 µM.

B18: JAL-1474 (peptide)
peptide: Octanoyl-[Sni]F[leu]L[Hyp][NMeL]DPI-OH
modifications: reading uncertain; also: printed as Occ-Sni-Phe-leu-Leu-Hyp-Nml-Asp-Pro-Ile-OH
On to B18, for which the “EC50 group, cGMP in GTM-3 cells” value was no more than 15 µM.

B19: JAL-1450 (peptide)
peptide: Octanoyl-AFLL[Pro(trans-4-NH2)][NMeL]DPI-NH2
modifications: also: lower-case ala, leu: meaning not given here
With B19, the “EC50 group, cGMP in GTM-3 cells” value was no more than 5 µM.

B20: JAL-1477 (peptide)
peptide: Octanoyl-AF[leu]L[Hyp][NMeL]D[Pro(3S-OH)]I-NH2
modifications: not fully specified (some residues); printed as Occ-ala-Phe-leu-Leu-Hyp-Nml-Asp-H3p-Ile-NH2; reading uncertain
On to B20, for which the “EC50 group, cGMP in GTM-3 cells” value is no more than 5 µM.

B21: JAL-1459 (peptide)
peptide: Octanoyl-[dA]F[dL]L[Hyp][NMeL]D[Pro(trans-4-NH2)]I-NH2
As to B21, the “EC50 group, cGMP in GTM-3 cells” value was no more than 15 µM.

B22: JAL-1476 (peptide)
peptide: Octanoyl-AF[leu]L[Hyp][NMeL]D[cisHyp]I-NH2
modifications: not fully specified (some residues); printed as Occ-ala-Phe-leu-Leu-Hyp-Nml-Asp-Chy-Ile-NH2; reading uncertain
For B22, the “EC50 group, cGMP in GTM-3 cells” value was no more than 5 µM.

B23: JAL-1475 (peptide)
peptide: Octanoyl-[Sni]F[leu]L[Hyp][NMeL]DPI-NHMe
modifications: reading uncertain; also: printed as Occ-Sni-Phe-leu-Leu-Hyp-Nml-Asp-Pro-Ile-(NH-CH3)
For B23, the “EC50 group, cGMP in GTM-3 cells” value is no more than 5 µM.
